From patent publication US20080261241A1, “Targeted ubiquitination of proteins and screening methods using a new class of ubiquitin ligase proteins” (INSTITUT PASTEUR, priority 2007, published 2008)

T1: Ste7 (Saccharomyces cerevisiae, UniProt P06784)
T1 construct: made in house
T1 sequence (P06784 1-515): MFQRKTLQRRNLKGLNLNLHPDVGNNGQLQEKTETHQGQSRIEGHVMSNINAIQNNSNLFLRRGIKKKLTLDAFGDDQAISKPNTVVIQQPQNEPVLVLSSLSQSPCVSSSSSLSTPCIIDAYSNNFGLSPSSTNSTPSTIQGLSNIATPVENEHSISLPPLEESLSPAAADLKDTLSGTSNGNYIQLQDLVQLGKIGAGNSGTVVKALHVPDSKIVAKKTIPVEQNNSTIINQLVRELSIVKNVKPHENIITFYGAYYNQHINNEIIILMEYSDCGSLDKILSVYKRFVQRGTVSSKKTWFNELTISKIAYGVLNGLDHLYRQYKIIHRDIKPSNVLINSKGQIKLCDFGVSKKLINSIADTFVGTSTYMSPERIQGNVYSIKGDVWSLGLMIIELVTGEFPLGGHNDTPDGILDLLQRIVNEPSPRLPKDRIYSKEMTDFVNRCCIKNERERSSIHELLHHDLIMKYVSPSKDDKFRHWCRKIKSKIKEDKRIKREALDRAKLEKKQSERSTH

B1: SspH1: Salmonella enterica Typhimurium homologue of IpaH, type III secretion effector; GST-SspH1 recombinant protein (protein)
chain: EFMLPINNNFSLPQNSFYNTISGTYADYFSAWDKWEKQALPGEERDEAVSRLKECLINNSDELRLDRLNLSSLPDNLPAQITLLNVSYNQLTNLPELPVTLKKLYSASNKLSELPVLPPALESLQVQHNELENLPALPDSLLTMNISYNEIVSLPSLPQALKNLRATRNFLTELPAFSEGNNPVVREYFFDRNQISHIPESILNLRNECSIHISDNPLSSHALQALQRLTSSPDYHGPRIYFSMSDGQQNTLHRPLADAVTAWFPENKQSDVSQIWHAFEHEEHANTFSAFLDRLSDTVSARNTSGFREQVAAWLEKLSASAELRQQSFAVAADATESCEDRVALTWNNLRKTLLVHQASEGLFDNDTGALLSLGREMFRLEILEDIARDKVRTLHFVDEIEVYLAFQTMLAEKLQLSTAVKEMRFYGVSGVTANDLRTAEAMVRSREENEFTDWFSLWGPWHAVLKRTEADRWAQAEEQKYEMLENEYPQRVADRLKASGLSGDADAEREAGAQVMRETEQQIYRQLTDEVLALRLFENGSQLHHS
modifications: left off: a dimerising Fc or GST
B2: IpaH9.8: Shigella flexneri type III secretion effector protein (SEQ ID NO: 4), E3 ubiquitin ligase; used FLAG-tagged in yeast, GST-fused in vitro (protein, listed as Shigella flexneri)
chain: MLPINNNFSLPQNSFYNTISGTYADYFSAWDKWEKQALPGEERDEAVSRLKECLINNSDELRLDRLNLSSLPDNLPAQITLLNVSYNQLTNLPELPVTLKKLYSASNKLSELPVLPPALESLQVQHNELENLPALPDSLLTMNISYNEIVSLPSLPQALKNLRATRNFLTELPAFSEGNNPVVREYFFDRNQISHIPESILNLRNECSIHISDNPLSSHALQALQRLTSSPDYHGPRIYFSMSDGQQNTLHRPLADAVTAWFPENKQSDVSQIWHAFEHEEHANTFSAFLDRLSDTVSARNTSGFREQVAAWLEKLSASAELRQQSFAVAADATESCEDRVALTWNNLRKTLLVHQASEGLFDNDTGALLSLGREMFRLEILEDIARDKVRTLHFVDEIEVYLAFQTMLAEKLQLSTAVKEMRFYGVSGVTANDLRTAEAMVRSREENEFTDWFSLWGPWHAVLKRTEADRWAQAEEQKYEMLENEYPQRVADRLKASGLSGDADAEREAGAQVMRETEQQIYRQLTDEVLALRLSENGSQLHHS
modifications: FLAG tag or GST fusion
notes: used FLAG-tagged in yeast, GST-fused in vitro

Tests used:
PKN1 = molecular target: T2, PKN1 (Homo sapiens, UniProt Q16512); experiment: In vitro ubiquitination of PKN1; type: biochemical, mammalian; conditions: GST-PKN1, E1, native ubiquitin, UbcH5B; anti-PKN1 antibodies
T2 construct: purchased Invitrogen
Procedure: To test whether SspH1 shares activities with IpaH9.8, a GST-SspH1 recombinant protein was purified. […] Ubiquitination of PKN1 by SspH1; SspH1, IpaH9.8, or IpaH9.8-C337A was incubated with E1, native ubiquitin, UbcH5B, and GST-PKN1 was tested.
(§1) Reactions were incubated at 37° C. for 1 h and stopped by the addition of an equal volume of Laemmli sample buffer (62.5 mM Tris-Hcl, pH 6.8, 10% glycerol, 2% SDS, 0.0005% bromophenol blue) containing, or not, 100 mM DTT. Ubiquitination reactions were carried out in the same manner except that 2 μg of HA-tagged ubiquitin, ubiquitin, ubiquitin-48R or […] were used instead of biotinylated ubiquitin. […] Reaction mixtures were separated by SDS/PAGE, transferred onto a nitrocellulose membrane and probed with specific antibodies or peroxidase-coupled streptavidin when biotinylated ubiquitin was used.

[1] = tested on: pheromone response MAPK pathway; experiment: Halo assay with α-factor disk; type: cell-based, Saccharomyces cerevisiae; conditions: wild-type yeast, exposure to α-factor
Source text: (§2) To gain insight to IpaH9.8 activity, Saccharomyces cerevisiae was employed as a surrogate model. […] Detection of mating pheromone by a G protein-coupled receptor activates an archetypal MAPK signalling cascade, inducing both arrest of the cell cycle and transcription of mating genes. The pheromone α-factor diffusing from a disk causes cell cycle arrest in […] cells, resulting in a halo of inhibited growth (Hoffman et al., 2002).
Standard media and techniques were used for transformation, maintenance, and growth of yeast (Guthrie C, 1991). Halo assays were performed as described (Hoffman et al., 2002) using disks impregnated with 15 μg of α-factor. erg6 ? yeast were transformed with plasmids encoding IpaH9.8 or IpaH9.8-C337A and grown in selective media containing 1% raffinose to mid log phase. Following addition of MG132 (100 μM) and galactose (2%), cultures were incubated for 2 h and cell extracts were prepared as described (Wang et al., 2003). β-Galactosidase assays were performed as described (Guarente, 1983).

[2] = tested on: pheromone response MAPK pathway; experiment: Pheromone-responsive FUS1-lacZ reporter (β-galactosidase); type: cell-based, Saccharomyces cerevisiae; conditions: wild-type yeast, exposure to α-factor
Source text: as §2
Invasive wild-type Shigella flexneri 5 M90T-Sm (Allaoui et al., 1992) and its mxiE derivative SF1060 (Mavris et al., 2002) were used for infection. Plasmids were propagated in Escherichia coli DH5α (end A1 hsdR17 sup E44 thi1 recA1 gyrA relA1 lacZYA-argF). To create JRY101, the integrating plasmid pFC23 (O'Rourke and Herskowitz, 1998) containing a FUS-lacZ transcriptional fusion was digested with SphI and transformed into BY4741; Leu+ colonies were tested for pheromone-responsive β-galactosidase production. JRY100 was constructed by PCR-mediated gene disruption in strain BY4741, replacing the entire open reading frame of UBP3 by the Nat marker, as described (Goldstein and McCusker, 1999; Longtine et al., 1998); the gene replacement was confirmed by PCR.
Standard media and techniques were used for transformation, maintenance, and growth of yeast (Guthrie C, 1991). […]

[3] = tested on: pheromone response pathway downstream of Ste4; experiment: Growth arrest by overproduction of Ste4; type: cell-based, Saccharomyces cerevisiae
[4] = tested on: pheromone response pathway at or downstream of Ste11; experiment: FUS1-HIS3 reporter growth of strain SY2625 with Ste11-4; type: cell-based, Saccharomyces cerevisiae; conditions: SY2625 with plasmid encoding Ste11-4; medium lacking histidine with 3-amino triazole
Source text: To identify the target of IpaH9.8, yeast strains were used that were altered in the signalling cascade. […] The constitutively active variant of the MAPKKK Ste11 encoded by the allele STE11-4 promotes elevated transcription of pheromone responsive genes, even in the absence of pheromone (Stevenson et al., 1992). Growth of the strain SY2625 harbouring a FUS1-HIS3 pheromone-inducible reporter is dependent on signalling through the pheromone response pathway on a medium lacking histidine and containing 3-amino triazole (Evangelista et al., 1997). SY2625 containing a plasmid encoding Ste11-4, but not those containing the vector, were His^+, consistent with activation of the pathway by Ste11-4 and transcription of FUS1-HIS3. […] Upon phosphorylation by Ste11, Ste7 is ubiquitinated and, following removal of ubiquitin chains by the specific deubiquitinase Ubp3, is degraded by the proteasome (Wang et al., 2003).

MAPKK Ste7 = experiment: Immunoblot of Ste7 amount in yeast; type: cell-based, Saccharomyces cerevisiae
sst2Δ cells = experiment: Growth of sst2Δ yeast in the presence of pheromone; type: cell-based, Saccharomyces cerevisiae; conditions: galactose-induced production, α-factor plates
UbcH5B = molecular target: T3, UbcH5B (Homo sapiens, UniProt P62837); experiment: In vitro removal of ubiquitin from ubiquitinated E2; type: biochemical; conditions: biotinylated ubiquitin, E1, UbcH5B
T3 construct: His; made in house
Procedure: The observation that the degradation of Ste7 promoted by IpaH9.8 is proteasome-dependent led us to test in vitro if IpaH9.8 might be involved in an ubiquitination pathway. It was discovered that the E2 enzyme UbcH5B was apparently not ubiquitinated by E1 in the presence of GST-IpaH9.8 (FIG. 2B).
as §1

ubiquitin = molecular target: T4, ubiquitin (Homo sapiens, UniProt P0CG47); experiment: In vitro autoubiquitination; type: biochemical; conditions: E1, UbcH5B
T4 construct: UbcH7, E1, ubiquitin, HA-ubiquitin, biotinylated ubiquitin, ubiquitin-K48R and -K63R; purchased Boston Biochem
Procedure: The amide linkage, but not the thioesther linkage, of ubiquitin to ubiquitinated proteins is resistant to dithiothreitol (DTT).
(§3) Thus, IpaH9.8 is an E3 ubiquitin ligase for Ste7; the proteasome-dependent disappearance of Ste7 in yeast was likely due to the degradation of Ste7 following its polyubiquitination by IpaH9.8 and IpaH7.8.
as §1

HA-tagged ubiquitin [5] = molecular target: T5, HA-tagged ubiquitin (Homo sapiens, UniProt P0CG47); experiment: In vitro polyubiquitination of ubiquitin; type: biochemical; conditions: HA-ubiquitin, E1, UbcH5B; anti-HA antibodies
T5 construct: multiples of the size of HA-ubiquitin (9 kDa); purchased Boston Biochem
Procedure: (§4) Ubiquitin biotinylated on Lys residues can not support polyubiquitination reactions. To test if IpaH9.8 could polyubiquitinate proteins, reactions were performed using HA-tagged ubiquitin, instead of biotinylated ubiquitin.
as §1

HA-tagged ubiquitin [6] = experiment: In vitro polyubiquitination of ubiquitin; type: biochemical; conditions: K48R and K63R ubiquitin variants
Procedure: as §4, §1

Ste7 = molecular target: T1, Ste7; experiment: In vitro ubiquitination of Ste7; type: biochemical; conditions: Ste7, Ste11-4, Kss1 complexes, native ubiquitin, E1, UbcH5B; anti-Ste7 antibodies
Procedure: as §3, §1

T2 sequence (Q16512 whole entry): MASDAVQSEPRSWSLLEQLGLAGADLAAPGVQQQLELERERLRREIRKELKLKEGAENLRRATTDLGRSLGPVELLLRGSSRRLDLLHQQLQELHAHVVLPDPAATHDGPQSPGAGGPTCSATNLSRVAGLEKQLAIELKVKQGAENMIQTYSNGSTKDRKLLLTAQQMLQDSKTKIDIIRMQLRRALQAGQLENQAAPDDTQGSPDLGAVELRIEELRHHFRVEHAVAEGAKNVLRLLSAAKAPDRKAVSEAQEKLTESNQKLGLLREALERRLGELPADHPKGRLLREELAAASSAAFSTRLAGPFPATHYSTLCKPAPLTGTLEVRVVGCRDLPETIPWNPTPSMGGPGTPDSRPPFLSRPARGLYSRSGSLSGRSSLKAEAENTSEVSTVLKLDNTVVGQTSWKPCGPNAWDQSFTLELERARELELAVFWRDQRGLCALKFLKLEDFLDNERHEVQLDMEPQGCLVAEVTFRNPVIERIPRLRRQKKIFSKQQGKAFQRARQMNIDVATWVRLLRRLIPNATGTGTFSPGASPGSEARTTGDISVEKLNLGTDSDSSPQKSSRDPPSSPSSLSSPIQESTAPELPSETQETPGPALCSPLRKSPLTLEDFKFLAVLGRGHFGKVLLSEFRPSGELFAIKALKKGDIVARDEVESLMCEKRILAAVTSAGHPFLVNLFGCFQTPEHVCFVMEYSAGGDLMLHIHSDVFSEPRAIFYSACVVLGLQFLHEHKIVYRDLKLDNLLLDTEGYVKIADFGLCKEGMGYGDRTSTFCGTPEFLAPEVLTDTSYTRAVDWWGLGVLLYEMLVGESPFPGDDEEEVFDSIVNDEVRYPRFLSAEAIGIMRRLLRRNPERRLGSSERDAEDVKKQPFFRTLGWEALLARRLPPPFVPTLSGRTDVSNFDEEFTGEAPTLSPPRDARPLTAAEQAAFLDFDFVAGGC
T3 sequence (P62837 whole entry): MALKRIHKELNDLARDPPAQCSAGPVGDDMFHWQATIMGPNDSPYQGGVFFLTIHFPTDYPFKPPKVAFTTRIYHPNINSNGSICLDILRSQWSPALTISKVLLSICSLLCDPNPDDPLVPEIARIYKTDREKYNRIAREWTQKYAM

Molecule | ubiquitination of PKN1 (PKN1) | halo of inhibited growth [1] | expression of FUS1-lacZ reporter gene [2] | rescue of growth arrest [3] | His phenotype (FUS1-HIS3 reporter) [4] | disappearance of Ste7 (MAPKK Ste7; ubp3Δ and ste11Δ cells) | amount of Ste7 (MAPKK Ste7; wild-type yeast, regardless of stimulation by α-factor) | growth of sst2Δ cells in the presence of pheromone (sst2Δ cells) | removal of ubiquitin from ubiquitinated UbcH5B (UbcH5B) | autoubiquitination (DTT-resistant ubiquitinated protein) (ubiquitin; biotinylated ubiquitin) | autoubiquitination (anti-IpaH antibodies) (ubiquitin; native ubiquitin, MAPK complexes) | polyubiquitination of HA-tagged ubiquitin (HA-tagged ubiquitin [5]) | linkage of polyubiquitin chains (HA-tagged ubiquitin [6]) | ubiquitination of Ste7 (Ste7)
B1 | detected an additional species migrating at a size >250 kDa |  |  |  |  |  |  |  |  |  |  |  |  | 
B2 |  | failed to form a halo | failed to form a halo and to induce expression | rescued this phenotype | His^− | still resulted in the disappearance of Ste7 | drastically reduced | allowed sst2Δ cells to grow in the presence of pheromone | promoted the removal of ubiquitin from UbcH5B | a DTT-resistant ubiquitinated protein of the size of GST-IpaH9.8 (FIG. 3) was detected | Both the non- and mono-ubiquitinated forms of IpaH9.8 were detected | detected a ladder of ubiquitinated proteins | catalyzed the formation of polyubiquitin chains on Lys-48, but not Lys-63 | larger species that formed only in the presence of IpaH9.8 were detected
